Measurements published in patent US20230168258A1 (UNIVERSIDAD DE MURCIA, published 2023).

Tests used:
Experiment in all cases: dot-blot
[1] = target: T1, pig oxytocin (pig, UniProt P01177 20-28)
T1 construct: only the oxytocin nonapeptide is meant; The form spotted in the dot-blot is not described; also called oxytocin of pig
T1 peptide (looked up): CYIQNCPLG

[2] = target: T2, human oxytocin (human, UniProt P01178 20-28)
T2 construct: only the oxytocin nonapeptide is meant; The form spotted in the dot-blot is not described; also called oxytocin of human
T2 peptide (looked up): CYIQNCPLG

[3] = target: T3, horse oxytocin (horse, UniProt P01176 1-9)
T3 construct: The form spotted in the dot-blot is not described; also called oxytocin of horse
T3 peptide (looked up): CYIQNCPLG

- binding result [1]: binds
- binding result [2]: binds
- binding result [3]: binds
B1: monoclonal antibody P26C (antibody, V domains shown)
VH: QIQLVQSGPELKKPGETVKISCKASGYIFTNYGMNWVKQAPGKNLKWMGWINTNTGEPTYAEEFKGRFAFSLETSASIAYLKINNLKNEDTATYFCSRGGLLPLSYWGQGTLVTVSA
VL: DVVMTQTPLSLPVSLGDQASISCRSSQSLVHSNGNTYLHWFLQKPGQSPKLLIYKVSNRFSGVPDRFSGSGSGTDFTLKISRVEAEDLGVYFCSQSTHFPWTFGGGTKLEIK
notes: Mouse (BALB/c) hybridoma antibody; the isotype is stated as IgGk; It was tested as hybridoma supernatant in the ELISA; also called clone P26C; monoclonal antibody of the invention
